Experimental data as given in patent US11541107B2, “Peptides and T cells for use in immunotherapeutic treatment of various cancers” (Immatics Biotechnologies GmbH, priority 2015, dated 2023).

target: HLA-A*02 (Homo sapiens, UniProt P04439, D140Y/D185E/D98H/E176V/E277Q/G131W/G231S/I119V/I121R/I166T/I218V/L300P/N151K/N90K/P208A/P217A/Q86G/Q94H/R138H/R169H); assay: MHC binding assay, UV-ligand exchange with beta2m ELISA, HLA-A*02; details: binding to HLA-A*02 ranged by peptide exchange yield (UV-ligand exchange, beta2m ELISA)
Text: Candidate peptides for T cell based therapies according to the present invention were further tested for their MHC binding capacity (affinity). The individual peptide-MHC complexes were produced by UV-ligand exchange, where a UV-sensitive peptide is cleaved upon UV-irradiation, and exchanged with the peptide of interest as analyzed. Only peptide candidates that can effectively bind and stabilize the peptide-receptive MHC molecules prevent dissociation of the MHC complexes. To determine the yield of the exchange reaction, an ELISA was performed based on the detection of the light chain (ß2 m) of stabilized MHC complexes. The assay was performed as generally described in Rodenko et al. (Rodenko et al., 2006).
96 well MAXISorp plates (NUNC) were coated over night with 2 ug/ml streptavidin in PBS at room temperature, washed 4× and blocked for 1 h at 37° C. in 2% BSA containing blocking buffer. […] Peptide-MHC monomers of the UV-exchange reaction were diluted 100 fold in blocking buffer. Samples were incubated for 1 h at 37° C., washed four times, incubated with 2 ug/ml HRP conjugated anti-β2 m for 1h at 37° C., washed again and detected with TMB solution that is stopped with […]. Absorption was measured at 450 nm. Candidate peptides that show a high exchange yield (preferably higher than 50%, most preferred higher than 75%) are generally preferred for a generation and production of antibodies or fragments thereof, and/or T cell receptors or fragments thereof, as they show sufficient avidity to the MHC molecules and prevent dissociation of the MHC complexes.

Substance	Peptide exchange
19 (TLLPTVLTL; listed as Homo sapiens) [compound 19]	+++ (50%-75% = +++)
75 (ILDNVKNLL; listed as Homo sapiens) [compound 75]	+++ (50%-75% = +++)
48 (TLDHKPVTV; listed as Homo sapiens) [compound 48]	++ (20%-49% = ++)
93 (SLLTQPIFL; listed as Homo sapiens) [compound 93]	+++ (50%-75% = +++)
330 (FLWPKEVEL; listed as Homo sapiens) [compound 330]	+++ (50%-75% = +++)
323 (ILSVVNSQL; listed as Homo sapiens) [compound 323]	+++ (50%-75% = +++)
4 (ELAEIVFKV; listed as Homo sapiens) [compound 4]	+++ (50%-75% = +++)
27 (KVFGDLDQV; listed as Homo sapiens) [compound 27]	+++ (50%-75% = +++)
11 (GVLKVFLENV; listed as Homo sapiens) [compound 11]	++ (20%-49% = ++)
69 (GIYDGILHSI; listed as Homo sapiens) [compound 69]	+++ (50%-75% = +++)
321 (SLWFKPEEL; listed as Homo sapiens) [compound 321]	+++ (50%-75% = +++)
55 (IASAIVNEL; listed as Homo sapiens) [compound 55]	++ (20%-49% = ++)
87 (YLTEVFLHVV; listed as Homo sapiens) [compound 87]	+++ (50%-75% = +++)
37 (ALINDILGELVKL; listed as Homo sapiens) [compound 37]	+++ (50%-75% = +++)
329 (FAWEPSFRDQV; listed as Homo sapiens) [compound 329]	++ (20%-49% = ++)
26 (KVDGVVIQL; listed as Homo sapiens) [compound 26]	+++ (50%-75% = +++)
33 (LLLPLLPPLSPSLG; listed as Homo sapiens) [compound 33]	+++ (50%-75% = +++)
335 (VLLAAGPSAA; listed as Homo sapiens) [compound 335]	++ (20%-49% = ++)
8 (KLGPFLLNA; listed as Homo sapiens) [compound 8]	+++ (50%-75% = +++)
71 (GLITVDIAL; listed as Homo sapiens) [compound 71]	+++ (50%-75% = +++)
53 (SLLSHVIVA; listed as Homo sapiens) [compound 53]	+++ (50%-75% = +++)
79 (SLVPLQILL; listed as Homo sapiens) [compound 79]	++++ (>=75% = ++++)
36 (KLYGIEIEV; listed as Homo sapiens) [compound 36]	++++ (>=75% = ++++)
46 (SLAKHGIVAL; listed as Homo sapiens) [compound 46]	+++ (50%-75% = +++)
66 (FITDFYTTV; listed as Homo sapiens) [compound 66]	+++ (50%-75% = +++)

Substance	Peptide exchange
56 (KILDLTRVL; listed as Homo sapiens) [compound 56]	++ (20%-49% = ++)
5 (SLFGQEVYC; listed as Homo sapiens) [compound 5]	+++ (50%-75% = +++)
91 (SSLEPQIQPV; listed as Homo sapiens) [compound 91]	+ (<20% = +)
35 (YVLPKLYVKL; listed as Homo sapiens) [compound 35]	++ (20%-49% = ++)
39 (ALMAVVSGL; listed as Homo sapiens) [compound 39]	+++ (50%-75% = +++)
72 (GMIGFQVLL; listed as Homo sapiens) [compound 72]	+++ (50%-75% = +++)
333 (GTFLEGVAK; listed as Homo sapiens) [compound 333]	+++ (50%-75% = +++)
61 (HLPDFVKQL; listed as Homo sapiens) [compound 61]	++ (20%-49% = ++)
22 (MLSDLTLQL; listed as Homo sapiens) [compound 22]	++++ (>=75% = ++++)
18 (YVLNEEDLQKV; listed as Homo sapiens) [compound 18]	+++ (50%-75% = +++)
25 (IQADDFRTL; listed as Homo sapiens) [compound 25]	++ (20%-49% = ++)
6 (FLDPAQRDL; listed as Homo sapiens) [compound 6]	+++ (50%-75% = +++)
92 (LLRGPPVARA; listed as Homo sapiens) [compound 92]	++ (20%-49% = ++)
85 (STLDGSLHAV; listed as Homo sapiens) [compound 85]	+++ (50%-75% = +++)
78 (LLWGHPRVA; listed as Homo sapiens) [compound 78]	+++ (50%-75% = +++)
331 (AIWKELISL; listed as Homo sapiens) [compound 331]	+++ (50%-75% = +++)
74 (ILDETLENV; listed as Homo sapiens) [compound 74]	++ (20%-49% = ++)
336 (GLMDGSPHFL; listed as Homo sapiens) [compound 336]	++ (20%-49% = ++)
81 (VLFLGKLLV; listed as Homo sapiens) [compound 81]	++ (20%-49% = ++)
47 (GLYQAQVNL; listed as Homo sapiens) [compound 47]	+++ (50%-75% = +++)
67 (GVIETVTSL; listed as Homo sapiens) [compound 67]	++ (20%-49% = ++)
80 (TLDEYLTYL; listed as Homo sapiens) [compound 80]	+++ (50%-75% = +++)
41 (FVLPLVVTL; listed as Homo sapiens) [compound 41]	+++ (50%-75% = +++)
23 (AQTVVVIKA; listed as Homo sapiens) [compound 23]	+ (<20% = +)
90 (GAVAEEVLSSI; listed as Homo sapiens) [compound 90]	+ (<20% = +)

Substance	Peptide exchange
24 (FLWNGEDSAL; listed as Homo sapiens) [compound 24]	+++ (50%-75% = +++)
337 (KVLGKIEKV; listed as Homo sapiens) [compound 337]	+++ (50%-75% = +++)
338 (LLYDGKLSSA; listed as Homo sapiens) [compound 338]	++ (20%-49% = ++)
59 (ALTKILAEL; listed as Homo sapiens) [compound 59]	+++ (50%-75% = +++)
16 (HLYNNEEQV; listed as Homo sapiens) [compound 16]	++ (20%-49% = ++)
50 (EYALLYHTL; listed as Homo sapiens) [compound 50]	++ (20%-49% = ++)
339 (VLGPGPPPL; listed as Homo sapiens) [compound 339]	++ (20%-49% = ++)
58 (ALDDSLTSL; listed as Homo sapiens) [compound 58]	++ (20%-49% = ++)
13 (VLRDNIQGI; listed as Homo sapiens) [compound 13]	+++ (50%-75% = +++)
76 (ILLDESNFNHFL; listed as Homo sapiens) [compound 76]	+++ (50%-75% = +++)
32 (ILADEAFFSV; listed as Homo sapiens) [compound 32]	+++ (50%-75% = +++)
65 (KLDGICWQV; listed as Homo sapiens) [compound 65]	+++ (50%-75% = +++)
88 (ILLNTEDLASL; listed as Homo sapiens) [compound 88]	+++ (50%-75% = +++)
29 (TLCNKTFTA; listed as Homo sapiens) [compound 29]	+++ (50%-75% = +++)
63 (TLSSERDFAL; listed as Homo sapiens) [compound 63]	+ (<20% = +)
324 (AIFDFCPSV; listed as Homo sapiens) [compound 324]	++++ (>=75% = ++++)
3 (TLLGKQVTL; listed as Homo sapiens) [compound 3]	+++ (50%-75% = +++)
325 (RLLPKVQEV; listed as Homo sapiens) [compound 325]	++ (20%-49% = ++)
42 (VLSPFILTL; listed as Homo sapiens) [compound 42]	+++ (50%-75% = +++)
54 (FINPKGNWLL; listed as Homo sapiens) [compound 54]	+++ (50%-75% = +++)
31 (ALSDETKNNWEV; listed as Homo sapiens) [compound 31]	++++ (>=75% = ++++)
1 (PLWGKVFYL; listed as Homo sapiens) [compound 1]	++ (20%-49% = ++)
328 (SVDSAPAAV; listed as Homo sapiens) [compound 328]	++ (20%-49% = ++)
